Results on two molecules are retold here after patent publication US20260001928A1 (CORTERIA PHARMACEUTICALS, priority 2022, published 2026).

One assay deals with T1, CRF1R receptor (UniProt P34998 24-415, limits assumed).
T1 sequence (looked up): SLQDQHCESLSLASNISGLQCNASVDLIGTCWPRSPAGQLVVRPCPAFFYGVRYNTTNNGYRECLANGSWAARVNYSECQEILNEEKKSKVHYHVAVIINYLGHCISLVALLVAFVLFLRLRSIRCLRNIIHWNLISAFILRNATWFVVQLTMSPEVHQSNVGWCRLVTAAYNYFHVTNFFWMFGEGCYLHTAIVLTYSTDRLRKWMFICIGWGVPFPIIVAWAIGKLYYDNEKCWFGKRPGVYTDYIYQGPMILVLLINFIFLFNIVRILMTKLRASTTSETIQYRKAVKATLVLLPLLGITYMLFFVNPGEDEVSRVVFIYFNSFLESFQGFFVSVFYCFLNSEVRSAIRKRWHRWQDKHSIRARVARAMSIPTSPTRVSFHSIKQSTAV
Briefly: cell-based or functional assay.

Assay [1] has as its target human corticotropin-releasing factor 2a (CRF2a receptor) (human), Q13324. As to the kind of experiment: cell-based or functional assay.

*1 amine or outer side, *2 acyl side, *3 side chain or, on linkers, in order; H or OH if unused. Side-chain parts run from the residue outwards. [ ]: non-standard residue; d: D form. The star is where a group is joined. C16 diacid = O=C(O)CCCCCCCCCCCCCCC(=O)*; γGlu = O=C(O)[C@H](CCC(=O)[*:2])N[*:1]; Nva = CCC[C@H](N)C(=O)O; Abu = CC[C@H](N)C(=O)O

Chain of human corticotropin-releasing factor 2a (CRF2a receptor) (human), Q13324 (Q13324 20-411): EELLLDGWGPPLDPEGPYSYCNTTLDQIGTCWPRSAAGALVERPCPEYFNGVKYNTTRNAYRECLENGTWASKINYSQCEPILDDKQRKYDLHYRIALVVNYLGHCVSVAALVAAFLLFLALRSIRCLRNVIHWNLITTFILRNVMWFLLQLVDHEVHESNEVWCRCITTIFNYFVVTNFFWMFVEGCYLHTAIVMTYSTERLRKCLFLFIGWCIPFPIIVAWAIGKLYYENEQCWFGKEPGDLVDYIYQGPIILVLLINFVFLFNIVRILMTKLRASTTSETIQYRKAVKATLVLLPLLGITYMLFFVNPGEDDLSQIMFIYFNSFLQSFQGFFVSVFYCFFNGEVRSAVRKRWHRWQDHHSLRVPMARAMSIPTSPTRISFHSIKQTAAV

B1: SEQ ID NO 52 (peptide)
peptide: Ac-IVLSLD[dV]PIKLK([γGlu-C16 diacid])KILLEQEKQKKQREQAETN[Nva]QILAQV-NH2
SMILES: CCC[C@H](NC(=O)[C@H](CC(N)=O)NC(=O)[C@@H](NC(=O)[C@H](CCC(=O)O)NC(=O)[C@H](C)NC(=O)[C@H](CCC(N)=O)NC(=O)[C@H](CCC(=O)O)NC(=O)[C@H](CCCNC(=N)N)NC(=O)[C@H](CCC(N)=O)NC(=O)[C@H](CCCCN)NC(=O)[C@H](CCCCN)NC(=O)[C@H](CCC(N)=O)NC(=O)[C@H](CCCCN)NC(=O)[C@H](CCC(=O)O)NC(=O)[C@H](CCC(N)=O)NC(=O)[C@H](CCC(=O)O)NC(=O)[C@H](CC(C)C)NC(=O)[C@H](CC(C)C)NC(=O)[C@@H](NC(=O)[C@H](CCCCN)NC(=O)[C@H](CCCCNC(=O)CC[C@H](NC(=O)CCCCCCCCCCCCCCC(=O)O)C(=O)O)NC(=O)[C@H](CC(C)C)NC(=O)[C@H](CCCCN)NC(=O)[C@@H](NC(=O)[C@@H]1CCCN1C(=O)[C@H](NC(=O)[C@H](CC(=O)O)NC(=O)[C@H](CC(C)C)NC(=O)[C@H](CO)NC(=O)[C@H](CC(C)C)NC(=O)[C@@H](NC(=O)[C@@H](NC(C)=O)[C@@H](C)CC)C(C)C)C(C)C)[C@@H](C)CC)[C@@H](C)CC)[C@@H](C)O)C(=O)N[C@@H](CCC(N)=O)C(=O)N[C@H](C(=O)N[C@@H](CC(C)C)C(=O)N[C@@H](C)C(=O)N[C@@H](CCC(N)=O)C(=O)N[C@H](C(N)=O)C(C)C)[C@@H](C)CC
For the molecule B1, the “Emax (% I)” value in the assay with CRF1R receptor stood at 7%. The EC50 [nM] (cAMP) in assay [1] came out at 0.17 nM.

B2: SEQ ID NO 51 (peptide)
peptide: Ac-IVLSLD[dV]PIKLK([γGlu-C16 diacid])KILLEQEKQKKQREQAETN[Abu]QILAQV-NH2
SMILES: CC[C@H](NC(=O)[C@H](CC(N)=O)NC(=O)[C@@H](NC(=O)[C@H](CCC(=O)O)NC(=O)[C@H](C)NC(=O)[C@H](CCC(N)=O)NC(=O)[C@H](CCC(=O)O)NC(=O)[C@H](CCCNC(=N)N)NC(=O)[C@H](CCC(N)=O)NC(=O)[C@H](CCCCN)NC(=O)[C@H](CCCCN)NC(=O)[C@H](CCC(N)=O)NC(=O)[C@H](CCCCN)NC(=O)[C@H](CCC(=O)O)NC(=O)[C@H](CCC(N)=O)NC(=O)[C@H](CCC(=O)O)NC(=O)[C@H](CC(C)C)NC(=O)[C@H](CC(C)C)NC(=O)[C@@H](NC(=O)[C@H](CCCCN)NC(=O)[C@H](CCCCNC(=O)CC[C@H](NC(=O)CCCCCCCCCCCCCCC(=O)O)C(=O)O)NC(=O)[C@H](CC(C)C)NC(=O)[C@H](CCCCN)NC(=O)[C@@H](NC(=O)[C@@H]1CCCN1C(=O)[C@H](NC(=O)[C@H](CC(=O)O)NC(=O)[C@H](CC(C)C)NC(=O)[C@H](CO)NC(=O)[C@H](CC(C)C)NC(=O)[C@@H](NC(=O)[C@@H](NC(C)=O)[C@@H](C)CC)C(C)C)C(C)C)[C@@H](C)CC)[C@@H](C)CC)[C@@H](C)O)C(=O)N[C@@H](CCC(N)=O)C(=O)N[C@H](C(=O)N[C@@H](CC(C)C)C(=O)N[C@@H](C)C(=O)N[C@@H](CCC(N)=O)C(=O)N[C@H](C(N)=O)C(C)C)[C@@H](C)CC
As to B2, the “Emax (% I)” value with CRF1R receptor turned out to be 9%. The molecule also gave an EC50 [nM] (cAMP) in assay [1] of 0.12 nM.
